How the values were obtained:
[1] = target: hCA-IX expressed on cells (SKRC52, SKRC59, 67NR^hCA-IX) (human) (UniProt Q16790); assay: plate-based cell binding assay, mean fluorescent intensity per cell area, SKRC52 (hCA-IX high) cells
[2] = target: hCA-IX expressed on cells (SKRC52, SKRC59, 67NR^hCA-IX) (human) (UniProt Q16790); assay: Plate-based cell binding assay, one site specific binding fit; cell line not given

EC50 (read off the curve) [1]: 1 nM
Bmax (mean fluorescent intensity per cell area) [2]: 575
Kd [2]: 1.29 nM
Substance: cG250 full sized antibody (FSA)

— patent US20240076406A1, “SINGLE DOMAIN ANTIBODIES TARGETING CA-IX AS WELL AS COMPOSITIONS COMPRISING SAME” (National Research Council of Canada, priority 2021, published 2024)
